System: MS2 coat protein
Experiment: apparent KD of MS2 coat protein; designed switch direction (-1 OFF switch, 1 ON switch): -1; higher = weaker reporter binding
In short: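 The reported apparent KD is a per-design median over clusters, from curve fits of normalised cluster fluorescence. Protein titrations used SNAP-549-labelled MS2 coat protein, doubled from 0.7 or 1.5 nM to 3 µM, in Tris-HCl pH 7.5 buffer with KCl, MgCl2, BSA, DTT, tRNA and Tween-20, with no input, 200 uM small-molecule ligand, or an oligonucleotide input. The RNA switches were transcribed on Illumina chips by stalled E. coli RNA polymerase.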

[1] = input ligand: microRNA oligo, concentration not stated
[2] = Eterna round: R95, input ligand: FMN 200 uM
[3] = Eterna round: R95, input ligand: microRNA oligo, concentration not stated
[4] = Eterna round: R95, input ligand: none

AGUACAAUCACGAAAGUGAUUGUACAAUAAGCUUGUGAAACAUGAGGAUCACCCAUGUCCUCAUAAGCUCGUCUUAU [Mat - Sensor v2 -ver2- JL mod - D69] (Eterna round: R96, puzzle: Sensor v2, turn-off variant 2)
apparent KD of MS2 coat protein (input ligand: FMN 200 uM): 16.1 nM
apparent KD of MS2 coat protein [1]: 416 nM
apparent KD of MS2 coat protein (input ligand: none): 18.4 nM

AGUACCUGAGUACAAAGUAACAUGAGGAUCACCCAUGUAAAUGGGUGAGAACAAGCUCACCGUUCGUCUUAAAUAAA [JL turnoff v1 79] (Eterna round: R96, puzzle: Sensor v2, turn-off variant)
apparent KD of MS2 coat protein (input ligand: FMN 200 uM): 584 nM
apparent KD of MS2 coat protein [1]: 38.8 nM
apparent KD of MS2 coat protein (input ligand: none): 618 nM

AGUACGAUGCGUGCUGACAUGCGUCGUGCAGCAGGUGAUACAUGAGGAUCACCCAUGUCCUCAUUUGCUCGUCUUGU [Mat - Sensor v3 - Turn-off var 2 - D18] (puzzle: Sensor v3, turn-off variant 2)
apparent KD of MS2 coat protein [2]: 37.2 nM
apparent KD of MS2 coat protein [3]: 257 nM
apparent KD of MS2 coat protein [4]: 36.1 nM

AGUACUAACACGAAAGUGUUAGUACAAUAAGCUUGUGAAACAUGAGGAUCACCCAUGUCCUCCUAAGCUCGUCUUAU [salish99_TOv2_r3_049] (puzzle: Sensor v3, turn-off variant 2)
apparent KD of MS2 coat protein [2]: 45.4 nM
apparent KD of MS2 coat protein [3]: 140 nM
apparent KD of MS2 coat protein [4]: 43.2 nM

AGUACUAACACGAGAGUGUUAGUACAAUAAGCUUGUGUUACAUGAGGAUCACCCAUGUCCUCAUAAGCUCGUCUUAU [Mat - Sensor v3 - Turn-off var 2 - D53] (puzzle: Sensor v3, turn-off variant 2)
apparent KD of MS2 coat protein [2]: 133 nM
apparent KD of MS2 coat protein [3]: 246 nM
apparent KD of MS2 coat protein [4]: 115 nM

AGUACUAACACGAGAGUGUUAGUACUAUAAGCUUGUGUUACAUGAGGAUCACCCAUGUCCUCAUAGGCUCGUCUUAG [Mat - Sensor v3 - Turn-off var 2 - D83] (puzzle: Sensor v3, turn-off variant 2)
apparent KD of MS2 coat protein [2]: 80.4 nM
apparent KD of MS2 coat protein [3]: 42.7 nM
apparent KD of MS2 coat protein [4]: 87.3 nM

AGUACUAACACGGAAGUGUUAGUACAAUAAGCUUGUGAAACAUGAGGAUCACCCAUGUCCUCAUAAGCUCGUCUUAU [salish99_TOv2_r3_026] (puzzle: Sensor v3, turn-off variant 2)
apparent KD of MS2 coat protein [2]: 11.1 nM
apparent KD of MS2 coat protein [3]: 315 nM
apparent KD of MS2 coat protein [4]: 18.1 nM

AGUACUAACACGUGUGUGUUAGUACAAUAAGCUUGUGAAACAUGAGGAUCACCCAUGUCCUCAUAAGCUCGUCUUAU [salish99_TOv2_r3_074] (Eterna round: R96, puzzle: Sensor v3, turn-off variant 2)
apparent KD of MS2 coat protein (input ligand: FMN 200 uM): 14.9 nM
apparent KD of MS2 coat protein [1]: 514 nM
apparent KD of MS2 coat protein (input ligand: none): 17.1 nM

AGUACUAACACGUGUGUGUUAGUACAAUAAGCUUGUGAAACAUGAGGAUCACCCAUGUCCUCAUAAGCUCGUCUUAU [salish99_TOv2_r3_074] (puzzle: Sensor v3, turn-off variant 2)
apparent KD of MS2 coat protein [2]: 16.1 nM
apparent KD of MS2 coat protein [3]: 813 nM
apparent KD of MS2 coat protein [4]: 15 nM

AGUACUAACCCGAAAGUGUUAGUACAAUAAGCUUGUGAAACAUGAGGAUCACCCAUGUCCUCAUAAGCUCGUCUUAU [salish99_TOv2_r3_024] (puzzle: Sensor v3, turn-off variant 2)
apparent KD of MS2 coat protein [2]: 16.7 nM
apparent KD of MS2 coat protein [3]: 766 nM
apparent KD of MS2 coat protein [4]: 15.3 nM

AGUACUAUGCGAGCUGACUUGCGUAGUGCAGCAGGUGAAACAUGAGGAUCACCCAUGUCCUCAUUUGCUCGUCUUAU [Mat - Sensor v3 - Turn-off var 2 - D2] (puzzle: Sensor v3, turn-off variant 2)
apparent KD of MS2 coat protein [2]: 34.3 nM
apparent KD of MS2 coat protein [3]: 502 nM
apparent KD of MS2 coat protein [4]: 33.8 nM

AGUACUAUGCGAGCUGACUUGCGUAGUGCAGCAGGUGUUACAUGAGGAUCACCCAUGUCCUCAUUUGCUCGUCUUAU [Mat - Sensor v3 - Turn-off var 2 - D6] (puzzle: Sensor v3, turn-off variant 2)
apparent KD of MS2 coat protein [2]: 271 nM
apparent KD of MS2 coat protein [3]: 193 nM
apparent KD of MS2 coat protein [4]: 247 nM

AGUAGGUCUACCUUGGUGGAUCUGCAUAAAGCAAGUGAAACAUGAGGAUCACCCAUGUCCUCAUUUGCUCGUCUUAU [JL turnoff v2 99.20] (puzzle: Sensor v3, turn-off variant 2)
apparent KD of MS2 coat protein [2]: 14.8 nM
apparent KD of MS2 coat protein [3]: 634 nM
apparent KD of MS2 coat protein [4]: 13 nM

AGUAGUAGUAUCCGAUCCUACAUGAGGAUCACCCAUGUAGCUAGACGUGCACGCGAUGCUCGUCAGACUACCGGAUG [salish99_TOv1_r3_041] (puzzle: Sensor v3, turn-off variant 1)
apparent KD of MS2 coat protein [2]: 23.7 nM
apparent KD of MS2 coat protein [3]: 23 nM
apparent KD of MS2 coat protein [4]: 29.6 nM

— the supplement of paper PMC9170038
